Data published in publication PMC4067148 (Biochemistry, 2014).
Where a chain is given by its changes, count along the chain named. Names may count otherwise.

B1: AcrB_(L886G/E893G/W895G) (natural protein, Escherichia coli)
chain: MPNFFIDRPIFAWVIAIIIMLAGGLAILKLPVAQYPTIAPPAVTISASYPGADAKTVQDTVTQVIEQNMNGIDNLMYMSSNSDSTGTVQITLTFESGTDADIAQVQVQNKLQLAMPLLPQEVQQQGVSVEKSSSSFLMVVGVINTDGTMTQEDISDYVAANMKDAISRTSGVGDVQLFGSQYAMRIWMNPNELNKFQLTPVDVITAIKAQNAQVAAGQLGGTPPVKGQQLNASIIAQTRLTSTEEFGKILLKVNQDGSRVLLRDVAKIELGGENYDIIAEFNGQPASGLGIKLATGANALDTAAAIRAELAKMEPFFPSGLKIVYPYDTTPFVKISIHEVVKTLVEAIILVFLVMYLFLQNFRATLIPTIAVPVVLLGTFAVLAAFGFSINTLTMFGMVLAIGLLVDDAIVVVENVERVMAEEGLPPKEATRKSMGQIQGALVGIAMVLSAVFVPMAFFGGSTGAIYRQFSITIVSAMALSVLVALILTPALCATMLKPIAKGDHGEGKKGFFGWFNRMFEKSTHHYTDSVGGILRSTGRYLVLYLIIVVGMAYLFVRLPSSFLPDEDQGVFMTMVQLPAGATQERTQKVLNEVTHYYLTKEKNNVESVFAVNGFGFAGRGQNTGIAFVSLKDWADRPGEENKVEAITMRATRAFSQIKDAMVFAFNLPAIVELGTATGFDFELIDQAGLGHEKLTQARNQLLAEAAKHPDMLTSVRPNGLEDTPQFKIDIDQEKAQALGVSINDINTTLGAAWGGSYVNDFIDRGRVKKVYVMSEAKYRMLPDDIGDWYVRAADGQMVPFSAFSSSRWEYGSPRLERYNGLPSMEILGQAAPGKSTGEAMELMEQLASKLPTGVGYDWTGMSYQERLSGNQAPSLYAISLIVVFGCLAALYGSGSIPFSVMLVVPLGVIGALLAATFRGLTNDVYFQVGLLTTIGLSAKNAILIVEFAKDLMDKEGKGLIEATLDAVRMRLRPILMTSLAFILGVMPLVISTGAGSGAQNAVGTGVMGGMVTATVLAIFFVPVFFVVVRRRFSRKNEDIEHSHTVDHH
B2: AcrB_(E893G) (natural protein, Escherichia coli)
chain: B1 chain with G886L, G895W

Columns and labels:
[1] = molecular target: the molecule itself; assay: native gel or EMSA
[2] = molecular target: the molecule itself; assay: native gel or EMSA; remark: listed apart in the source

Protein	stoichiometry N [1]	KX (trimer association constant, mole fraction) [2]
B1	3	1e+07
B2	3	3.2e+09
